From patent US20240124553A1
Values joined by “and” are separate entries in the source; they are usually repeats but may differ in a detail not shown here. Equal entries are not always repeated. Where two headings read alike, the source gives them in different places.

Columns and labels:
[1] = biological target: CHIKV E2-6K-E1 envelope proteins (strain S27) with E2 G186A (Chikungunya virus strain S27) (UniProt Q8JUX5); test: flow cytometry, transfected 293T cells
[2] = biological target: CHIKV E2-6K-E1 envelope proteins (strain S27) with E2 Y199A (Chikungunya virus strain S27) (UniProt Q8JUX5); test: flow cytometry, transfected 293T cells
[3] = biological target: CHIKV E2-6K-E1 envelope proteins (strain S27) with E2 I190A (Chikungunya virus strain S27) (UniProt Q8JUX5); test: flow cytometry, transfected 293T cells
[4] = biological target: CHIKV E2-6K-E1 envelope proteins (strain S27) with E2 I211A (Chikungunya virus strain S27) (UniProt Q8JUX5); test: flow cytometry, transfected 293T cells
[5] = biological target: CHIKV E2-6K-E1 envelope proteins (strain S27) with E2 K200A (Chikungunya virus strain S27) (UniProt Q8JUX5); test: flow cytometry, transfected 293T cells
[6] = biological target: CHIKV E2-6K-E1 envelope proteins (strain S27) with E2 C203A (Chikungunya virus strain S27) (UniProt Q8JUX5); test: flow cytometry, transfected 293T cells
[7] = biological target: CHIKV E2-6K-E1 envelope proteins (strain S27) with E2 G209A (Chikungunya virus strain S27) (UniProt Q8JUX5); test: flow cytometry, transfected 293T cells
[8] = biological target: CHIKV E2-6K-E1 envelope proteins (strain S27) with E2 N193A (Chikungunya virus strain S27) (UniProt Q8JUX5); test: flow cytometry, transfected 293T cells
[9] = biological target: CHIKV E2-6K-E1 envelope proteins (strain S27) with E2 S185A (Chikungunya virus strain S27) (UniProt Q8JUX5); test: flow cytometry, transfected 293T cells
[10] = biological target: CHIKV E2-6K-E1 envelope proteins (strain S27) with E2 S194A (Chikungunya virus strain S27) (UniProt Q8JUX5); test: flow cytometry, transfected 293T cells
[11] = biological target: CHIKV E2-6K-E1 envelope proteins (strain S27) with E2 I217A (Chikungunya virus strain S27) (UniProt Q8JUX5); test: flow cytometry, transfected 293T cells
[12] = biological target: CHIKV E2-6K-E1 envelope proteins (strain S27) with E2 N219A (Chikungunya virus strain S27) (UniProt Q8JUX5); test: flow cytometry, transfected 293T cells
[13] = biological target: CHIKV E2-6K-E1 envelope proteins (strain S27) with E2 V188A (Chikungunya virus strain S27) (UniProt Q8JUX5); test: flow cytometry, transfected 293T cells
[14] = biological target: CHIKV E2-6K-E1 envelope proteins (strain S27) with E2 C201A (Chikungunya virus strain S27) (UniProt Q8JUX5); test: flow cytometry, transfected 293T cells
[15] = biological target: CHIKV E2-6K-E1 envelope proteins (strain S27) with E2 T196A (Chikungunya virus strain S27) (UniProt Q8JUX5); test: flow cytometry, transfected 293T cells
[16] = biological target: CHIKV E2-6K-E1 envelope proteins (strain S27) with E2 G204A (Chikungunya virus strain S27) (UniProt Q8JUX5); test: flow cytometry, transfected 293T cells
[17] = biological target: CHIKV E2-6K-E1 envelope proteins (strain S27) with E2 N218A (Chikungunya virus strain S27) (UniProt Q8JUX5); test: flow cytometry, transfected 293T cells
[18] = biological target: CHIKV E2-6K-E1 envelope proteins (strain S27) with E2 V197A (Chikungunya virus strain S27) (UniProt Q8JUX5); test: flow cytometry, transfected 293T cells
[19] = biological target: CHIKV E2-6K-E1 envelope proteins (strain S27) with E2 N202A (Chikungunya virus strain S27) (UniProt Q8JUX5); test: flow cytometry, transfected 293T cells
[20] = biological target: CHIKV E2-6K-E1 envelope proteins (strain S27) with E2 G205A (Chikungunya virus strain S27) (UniProt Q8JUX5); test: flow cytometry, transfected 293T cells
[21] = biological target: CHIKV E2-6K-E1 envelope proteins (strain S27) with E2 K215A (Chikungunya virus strain S27) (UniProt Q8JUX5); test: flow cytometry, transfected 293T cells
[22] = biological target: CHIKV E2-6K-E1 envelope proteins (strain S27) with E2 Q184A (Chikungunya virus strain S27) (UniProt Q8JUX5); test: flow cytometry, transfected 293T cells
[23] = biological target: CHIKV E2-6K-E1 envelope proteins (strain S27) with E2 L180A (Chikungunya virus strain S27) (UniProt Q8JUX5); test: flow cytometry, transfected 293T cells
[24] = biological target: CHIKV E2-6K-E1 envelope proteins (strain S27) with E2 T212A (Chikungunya virus strain S27) (UniProt Q8JUX5); test: flow cytometry, transfected 293T cells
[25] = biological target: CHIKV E2-6K-E1 envelope proteins (strain S27) with E2 R198A (Chikungunya virus strain S27) (UniProt Q8JUX5); test: flow cytometry, transfected 293T cells
[26] = biological target: CHIKV E2-6K-E1 envelope proteins (strain S27) with E2 V216A (Chikungunya virus strain S27) (UniProt Q8JUX5); test: flow cytometry, transfected 293T cells
[27] = biological target: CHIKV E2-6K-E1 envelope proteins (strain S27) with E2 N187A (Chikungunya virus strain S27) (UniProt Q8JUX5); test: flow cytometry, transfected 293T cells
[28] = biological target: CHIKV E2-6K-E1 envelope proteins (strain S27) with E2 L181A (Chikungunya virus strain S27) (UniProt Q8JUX5); test: flow cytometry, transfected 293T cells
[29] = biological target: CHIKV E2-6K-E1 envelope proteins (strain S27) with E2 C220A (Chikungunya virus strain S27) (UniProt Q8JUX5); test: flow cytometry, transfected 293T cells
[30] = biological target: CHIKV E2-6K-E1 envelope proteins (strain S27) with E2 S182A (Chikungunya virus strain S27) (UniProt Q8JUX5); test: flow cytometry, transfected 293T cells
[31] = biological target: CHIKV E2-6K-E1 envelope proteins (strain S27) with E2 K189A (Chikungunya virus strain S27) (UniProt Q8JUX5); test: flow cytometry, transfected 293T cells
[32] = biological target: CHIKV E2-6K-E1 envelope proteins (strain S27) with E2 L210A (Chikungunya virus strain S27) (UniProt Q8JUX5); test: flow cytometry, transfected 293T cells
[33] = biological target: CHIKV E2-6K-E1 envelope proteins (strain S27) with E2 T191A (Chikungunya virus strain S27) (UniProt Q8JUX5); test: flow cytometry, transfected 293T cells
[34] = biological target: CHIKV E2-6K-E1 envelope proteins (strain S27) with E2 Q195A (Chikungunya virus strain S27) (UniProt Q8JUX5); test: flow cytometry, transfected 293T cells
[35] = biological target: CHIKV E2-6K-E1 envelope proteins (strain S27) with E2 Q183A (Chikungunya virus strain S27) (UniProt Q8JUX5); test: flow cytometry, transfected 293T cells
[36] = biological target: CHIKV E2-6K-E1 envelope proteins (strain S27) with E2 S206A (Chikungunya virus strain S27) (UniProt Q8JUX5); test: flow cytometry, transfected 293T cells
[37] = biological target: CHIKV E2-6K-E1 envelope proteins (strain S27) with E2 V192A (Chikungunya virus strain S27) (UniProt Q8JUX5); test: flow cytometry, transfected 293T cells
[38] = biological target: Sindbis virus strain TR339 (virions; also structural proteins on infected Vero cells) (Sindbis virus)
[39] = biological target: CHIKV virus-like particles (strain 37997) (chikungunya virus)
[40] = biological target: CHIKV virus-like particles (strain 37997) (chikungunya virus); remark: listed apart in the source
[41] = biological target: CHIKV virus-like particles (strain 37997) (chikungunya virus); remark: listed apart in the source
[42] = biological target: CHIKV virus-like particles (strain 37997) (chikungunya virus); remark: listed apart in the source
[43] = biological target: CHIKV virus-like particles (strain 37997) (chikungunya virus); test: SPR, […], kinetic fit ([…]
[44] = biological target: CHIKV virus-like particles (strain 37997) (chikungunya virus); remark: listed apart in the source
[45] = biological target: CHIKV virus-like particles (strain 37997) (chikungunya virus); remark: listed apart in the source
[46] = biological target: CHIKV virus-like particles (strain 37997) (chikungunya virus); remark: listed apart in the source
[47] = biological target: CHIKV virus-like particles (strain 37997) (chikungunya virus); remark: listed apart in the source
[48] = biological target: CHIKV virus-like particles (strain 37997) (chikungunya virus); remark: listed apart in the source
[49] = biological target: CHIKV strain 181/25 (virions; also E2-E1 shown on infected cells) (chikungunya virus); test: cryo-EM of infectious CHIKV with Mxra8

MAb C9 (antibody)
Binding Reactivity (% WT) [1]: 101 % WT
Binding Reactivity (% WT) [2]: 122 % WT
Binding Reactivity (% WT) [3]: 81.8 % WT
Binding Reactivity (% WT) [4]: 126 % WT
Binding Reactivity (% WT) [5]: 144 % WT
Binding Reactivity (% WT) [6]: 58.3 % WT
Binding Reactivity (% WT) [7]: 108 % WT
Binding Reactivity (% WT) [8]: 113 % WT
Binding Reactivity (% WT) [9]: 105 % WT
Binding Reactivity (% WT) [10]: 119 % WT
Binding Reactivity (% WT) [11]: 110 % WT
Binding Reactivity (% WT) [12]: 117 % WT
Binding Reactivity (% WT) [13]: 141 % WT
Binding Reactivity (% WT) [14]: 65 % WT
Binding Reactivity (% WT) [15]: 99.8 % WT
Binding Reactivity (% WT) [16]: 106 % WT
Binding Reactivity (% WT) [17]: 72 % WT
Binding Reactivity (% WT) [18]: 83.8 % WT
Binding Reactivity (% WT) [19]: 96.2 % WT
Binding Reactivity (% WT) [20]: 111 % WT
Binding Reactivity (% WT) [21]: 143 % WT
Binding Reactivity (% WT) [22]: 135 % WT
Binding Reactivity (% WT) [23]: 126 % WT
Binding Reactivity (% WT) [24]: 125 % WT
Binding Reactivity (% WT) [25]: 122 % WT
Binding Reactivity (% WT) [26]: 112 % WT
Binding Reactivity (% WT) [27]: 123 % WT
Binding Reactivity (% WT) [28]: 110 % WT
Binding Reactivity (% WT) [29]: 104 % WT
Binding Reactivity (% WT) [30]: 132 % WT
Binding Reactivity (% WT) [31]: 129 % WT
Binding Reactivity (% WT) [32]: 105 % WT
Binding Reactivity (% WT) [33]: 118 % WT
Binding Reactivity (% WT) [34]: 129 % WT
Binding Reactivity (% WT) [35]: 176 % WT
Binding Reactivity (% WT) [36]: 96 % WT
Binding Reactivity (% WT) [37]: 114 % WT

duck MXRA8-Fc (Fc fusion)
neutralisation of SINV-GFP infection; IC50 (read off the curve) [38]: 1 µg/mL

monovalent mouse MXRA8 (cleaved from mouse MXRA8-Fc with GlySERIAS) (from UniProt Q9DBV4 20-340) (receptor)
Kd [39]: 76 nM
Kd [40]: 68 nM

CHK-265 (murine anti-CHIKV mAb) (antibody)
EC50 (read off the curve) [41]: 0.003 µg/mL

monovalent Du-D1-Mo-D2 MXRA8 (cleaved from the Fc fusion with GlySERIAS) (from UniProt Q9DBV4 23-65; Q9DBV4 195-293) (receptor)
Kd [40]: 545 nM
Kd [42]: 665 nM

cleaved human Mxra8 (human monomeric MXRA8) (from UniProt Q9BRK3 20-341) (receptor)
Kd [43]: 98.3 nM and 210 nM
Kd [44]: 60 nM and 300 nM

Mxra8 cleaved from Mxra8-HRV-Fc (soluble monomeric mouse Mxra8) (from UniProt Q9DBV4 23-336) (receptor)
Mxra8 molecules per virion (molecules per virion) [45]: 240
Kd [46]: 84 nM and 270 nM
Kd [47]: 183 nM and 224 nM
kon [47]: 37000 M⁻¹ s⁻¹
t1/2 [47]: 1.8 min
Kd [43]: 83.9 nM and 270 nM
Kd [48]: 200 nM
Mxra8 proteins bound per particle (proteins per particle) [49]: 60
Kd [44]: 60 nM and 300 nM

IM-CKV063 (antibody)
Binding Reactivity (% WT) [1]: 95.4 % WT
Binding Reactivity (% WT) [2]: 79.8 % WT
Binding Reactivity (% WT) [3]: 56.1 % WT
Binding Reactivity (% WT) [4]: 77.2 % WT
Binding Reactivity (% WT) [5]: 119 % WT
Binding Reactivity (% WT) [6]: 45.1 % WT
Binding Reactivity (% WT) [7]: 99.8 % WT
Binding Reactivity (% WT) [8]: 85.7 % WT
Binding Reactivity (% WT) [9]: 108 % WT
Binding Reactivity (% WT) [10]: 94 % WT
Binding Reactivity (% WT) [11]: 69.7 % WT
Binding Reactivity (% WT) [12]: 98 % WT
Binding Reactivity (% WT) [13]: 114 % WT
Binding Reactivity (% WT) [14]: 47.7 % WT
Binding Reactivity (% WT) [15]: 83 % WT
Binding Reactivity (% WT) [16]: 91.5 % WT
Binding Reactivity (% WT) [17]: 97.6 % WT
Binding Reactivity (% WT) [18]: 67.4 % WT
Binding Reactivity (% WT) [19]: 92.8 % WT
Binding Reactivity (% WT) [20]: 62 % WT
Binding Reactivity (% WT) [21]: 102 % WT
Binding Reactivity (% WT) [22]: 121 % WT
Binding Reactivity (% WT) [23]: 114 % WT
Binding Reactivity (% WT) [24]: 108 % WT
Binding Reactivity (% WT) [25]: 98.2 % WT
Binding Reactivity (% WT) [26]: 97.7 % WT
Binding Reactivity (% WT) [27]: 114 % WT
Binding Reactivity (% WT) [28]: 87.9 % WT
Binding Reactivity (% WT) [29]: 95.2 % WT
Binding Reactivity (% WT) [30]: 121 % WT
Binding Reactivity (% WT) [31]: 109 % WT
Binding Reactivity (% WT) [32]: 86.3 % WT
Binding Reactivity (% WT) [33]: 94.8 % WT
Binding Reactivity (% WT) [34]: 78.6 % WT
Binding Reactivity (% WT) [35]: 101 % WT
Binding Reactivity (% WT) [36]: 119 % WT
Binding Reactivity (% WT) [37]: 98.3 % WT
